Experimental findings from the supplement of paper PMC10567573 are described below.

± gives the standard deviation.

This data set is described as follows: protein stability index of a GFP-peptide fusion (GPS, HEK-293T) (PSI 1-6); higher = more stable. The following applies: c terminus: a fixed tail appended.
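Note: 24-mer peptide tiles fused after GFP, lentivirally expressed, FACS-sorted into six equal bins by GFP/DsRed ratio, decoded by Illumina sequencing, PSI is the read-weighted mean bin number.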

LIHVYLPLTSHILRAFVNSQIQGH [SNX8]: the protein stability index is 3.2 ± 0.27 (treatment: DMSO) and 3.19 ± 0.52 (treatment: MLN4924 1 uM, 8 h).
As for LIISCRKLFYFKIWAFLDVSFVER [FBXO39], the protein stability index is, setting by setting: (treatment: DMSO) 3.43 ± 0.47; (treatment: MLN4924 1 uM, 8 h) 2.9 ± 0.099.
The matching figures for LINTIRVVCASYEDYGHWLLCLRA [PLEKHN1]: 2.76 ± 0.89 and 2.43 ± 0.41.
On the same counts, the results for LIRGSTFAKAKPEIPWTSLTRKGL [PHTF1] are 2.25 ± 0.17 and 2.41 ± 0.31.
The matching figures for LISSGMSSHKQGHTSSEYDMLREM [TAF7L]: 3.75 ± 0.23 and 3.84 ± 0.19.
For LLAAQVQLQCSPAELQAELLHSQA [FBF1], the protein stability index was determined as 2.56 ± 0.26 (treatment: DMSO) and 2.42 ± 0.45 (treatment: MLN4924 1 uM, 8 h).
On to LLHLHQTAHADEFDCPSELQHTQE [STEAP1], for which the protein stability index amounted to 4.66 ± 0.11 (treatment: DMSO) and 4.78 ± 0.11 (treatment: MLN4924 1 uM, 8 h).
LLIEGRSVNEHTEEGESLLCLACS [ANKRD17]: the protein stability index was 3.22 ± 0.6 (treatment: DMSO) and 3.27 ± 0.91 (treatment: MLN4924 1 uM, 8 h).
The matching figures for LLIPKEDGVITASEDRTIRVWLKR [WDFY1]: 2.42 ± 0.34 and 2.7 ± 0.51.
The matching figures for LLLGAGESGKSTIVKQMKIIHEAG [GNAI1]: 2.51 ± 0.47 and 2.54 ± 0.65.
On the same counts, the results for LLMLENFIDGKFLPCSSYIDSYDP [ALDH8A1] are 1.97 ± 0.65 and 2.05 ± 0.56.
Turning to LLPLTELSVCPLEGSREHAFQITG [PLEKHN1], the protein stability index by setting is: (treatment: DMSO) 2.88 ± 0.13; (treatment: MLN4924 1 uM, 8 h) 2.83 ± 0.24.
Regarding LLPPGEPPLLGTFPRDHTSLALVQ [ANKRD40], the protein stability index is, setting by setting: (treatment: DMSO) 3.48 ± 0.096; (treatment: MLN4924 1 uM, 8 h) 3.39 ± 0.31.
As to LLSRINKDWLEGTVRGATGIFPLS [NCF4], the protein stability index was found to be 2.17 ± 0.47 (treatment: DMSO) and 2.51 ± 0.74 (treatment: MLN4924 1 uM, 8 h).
On the same counts, the results for LLSSGFEIDTPDKFGRTCLHAAAA [ANKRD44] are 2.95 ± 0.39 and 2.95 ± 0.035.
As to LMDIVPADDHRYKFADNKWSVTGK [TBX5], the protein stability index by setting is: (treatment: DMSO) 3.63 ± 0.29; (treatment: MLN4924 1 uM, 8 h) 3.54 ± 0.15.
The matching figures for LMDVTGGPFDLMSRRVIAANNRIL [IMPA1]: 2.75 ± 0.17 and 2.69 ± 0.2.
As for LMYPSYTFSGDVQLAQDDIDGIQA [MMP1], the protein stability index turned out to be 4.1 ± 0.15 (treatment: DMSO) and 4.25 ± 0.25 (treatment: MLN4924 1 uM, 8 h).
Take LNVELDPEIQKVRAQEREQIKALN [KRT71]: the protein stability index came to 4.74 ± 0.13 (treatment: DMSO) and 4.75 ± 0.11 (treatment: MLN4924 1 uM, 8 h).
LPGAVATIVKPLSAIPQPTITKQE [HNF4A]: the protein stability index stood at 4.51 ± 0.24 (treatment: DMSO) and 4.54 ± 0.17 (treatment: MLN4924 1 uM, 8 h).
On the same counts, the results for LPLAYQQTSAFARQPRDELERVRV [TMEM175] are 4.01 ± 0.35 and 4.1 ± 0.27.
The sequence LPPGFVLKKDKKKEEKEDEISLED [ZC3H15] came in with a protein stability index (treatment: DMSO) of 5.54 ± 0.46 and a protein stability index (treatment: MLN4924 1 uM, 8 h) of 5.45 ± 0.36.
As for LPRHQDQPHHQPPNRAGAPGESLE [TRAF3IP2], the protein stability index reads like this: (treatment: DMSO) 5.51 ± 0.2; (treatment: MLN4924 1 uM, 8 h) 5.43 ± 0.095.
On the same counts, the results for LPTVGGQLGTAGQGFSYSKSNGRG [MYOZ1] are 4.3 ± 0.21 and 4.4 ± 0.35.
The matching figures for LPYTDGLSWELLDSHLGGNARGMG [CTBP1-DT]: 2.98 ± 0.28 and 3.29 ± 0.14.
With LQGAASHVPEGFDPTGPAGLGRPT [EHMT1], the protein stability index by setting is: (treatment: DMSO) 4.54 ± 0.2; (treatment: MLN4924 1 uM, 8 h) 4.58 ± 0.14.
On the same counts, the results for LQGVPERLLGTAGTEEKKKLIRDF [VTI1B] are 4.25 ± 0.44 and 4.63 ± 0.2.
On the same counts, the results for LQLLLGCKARMERDGYGMTPLLAA [FEM1A] are 2.38 ± 0.5 and 2.24 ± 0.29.
On the same counts, the results for LQNKVPLLGSSTACIVVLDRTSHR [PPTC7] are 2.14 ± 0.16 and 2.32 ± 0.33.
In the case of LQRDFLKQRPTKLKSLIRLVKHWY [OAS1], the protein stability index (treatment: DMSO) was determined as 3.3 ± 0.41 and the protein stability index (treatment: MLN4924 1 uM, 8 h) turned out to be 3.15 ± 0.23.
Turning to LRDRAERIASRAIDNAADLLIFGK [SNX8], the protein stability index was found to be 3.28 ± 0.17 (treatment: DMSO) and 3.6 ± 0.31 (treatment: MLN4924 1 uM, 8 h).
The matching figures for LRFTSGLVVALDVDATLEHVQDPQ [INTS4]: 2.09 ± 0.25 and 2.43 ± 0.22.
The matching figures for LRGQVGGEINVEMDAAPGVDLSRI [KRT17]: 3.97 ± 0.15 and 3.92 ± 0.16.
For LRLHDNPALKECIQGADTIRCVYI [CRY1], the protein stability index by setting is: (treatment: DMSO) 2.6 ± 0.38; (treatment: MLN4924 1 uM, 8 h) 2.41 ± 0.3.
On the same counts, the results for LRRPRPVQRTQSVPVRRPARRRQS [RASAL3] are 4.99 ± 0.29 and 5.19 ± 0.35.
For the sequence LRSFCAWQRGLNTPEDSDPDHFDT [ADAMTS4], the protein stability index reads like this: (treatment: DMSO) 4.12 ± 0.27; (treatment: MLN4924 1 uM, 8 h) 4.24 ± 0.2.
